Experiment: soluble on expression in E. coli; label from the status in PepcDB or PDB records

Soluble on expression in E. coli, soluble:
MLKRCNAKYSCEIIKEKRADGDDRMATIDLQKKSVKIVLEKKQLTKVTARVGLVLDITGSMRPLYKNGTVQNVVERILAVADQFDDNGLLDVWVYDNEFSRLKPVSEKDFSGYVDREILNNDRLHKFGRNDEPPVMKDVLRKYVTEEPSSYPAFIVFINDGGCKKSIKPIIEASSDKPVFWQFVGIGNGNFDFLNKLDTLEGRVIDNTNFLHIEEIDRISDDELYDALLAEFPFWLKEAKEKGIVREQEPPAEKPKKKGFFSRLFSKLEHHHHHH, MSLTSTIEELLTAARRRRVFSAAGWSVGTATTTLCRGLLGTTAWDPPATAVTEDSRWDLASMTKPIVAIAVMSLIEDGVLTLDDTIAEHLPDYADTDKARIRVANLLTHTSGIPGRQPLYQWNRARDELLTAIRRLPLLGPPGAQVSYSSPGFILLGLIAESAAGMPLDQLVAERVTRPAGMVDAGFASPPTELAVATEDDPWRGHLVRGEVHDENAVVLGAPAGHAGMFATLVDMEALGRTLCAQGWGAHGRVLTPAGYAAMITPRTDHLPLRRTLGWQGVDAVDATAGDLIGPDGYGHTGFTGTSLWIDPDRGSYVVLLTNRIHPNRENTAISRVRRAVNNIGFALASEGHHHHHH, MAGDPMAHITRFEAPWFLMISKKQYKWTVRPNAGPHSIEKSIPLAVVIRDYLKLAGTIREAKHIIFDGKVLVDGKVRKDYKYPVGLMDIVSIPSADLYFRVLPDNVRFMRFSKISADEARYKYVRIINKTTIKEGRIQLNLEDGRNILVDKETAKNFKTLMTLKIELPSQQILDSFTISERSYAIFVGGRNVGIHGIVKNINLSKFKSRKYSVITLESRDGNTYQTNIMNVMSIGREKSDLRVDLEHHHHHH, MPMFIVNTNVPRASVPDGFLSELTQQLAQATGKPPQYIAVHVVPDQLMAFGGSSEPCALCSLHSIGKIGGAQNRSYSKLLCGLLAERLRISPDRVYINYYDMNAANVGWNNSTFALEHHHHHH, GMSNALATLASPADDIAFYEERLRAAMLTGDLKGLETLLADDLAFVDHTGCVKTKQTHLEPYRAGLLKLSRLDLSDAVVRAAGEDGRVVVVRAVTAGVYDGEAFTETLRFTRIWRRTQGPAGWKLVAGHCSVIL, MGSDKIHHHHHHMKVFVIGAGLMGRGIAIAIASKHEVVLQDVSEKALEAAREQIPEELLSKIEFTTTLEKVKDCDIVMEAVFEDLNTKVEVLREVERLTNAPLCSNTSVISVDDIAERLDSPSRFLGVHWMNPPHVMPLVEIVISRFTDSKTVAFVEGFLRELGKEVVVCKGQSLVNRFNAAVLSEASRMIEEGVRAEDVDRVWKHHLGLLYTLFGPLGNLDYIGLDVAYYASLYLYKRFGDEKFKPPEWLQEKIKKGEVGVKAGKGIYEYGPKAYEERVERLKKLLRFLGLE, MYPVDLHMHTVASTHAYSTLSDYIAQAKQKGIKLFAITDHGPDMEDAPHHWHFINMRIWPRVVDGVGILRGIEANIKNVDGEIDCSGKMFDSLDLIIAGFHEPVFAPHDKATNTQAMIATIASGNVHIISHPGNPKYEIDVKAVAEAAAKHQVALEINNSSFLHSRKGSEDNCREVAAAVRDAGGWVALGSDSHTAFTMGEFEECLKILDAVDFPPERILNVSPRRLLNFLESRGMAPIAEFADL, QPTAPKDFSSGFWDFNDGTTQGFGVNPDSPITAINVENANNALKISNLNSKGSNDLSEGNFWANVRISADIWGQSINIYGDTKLTMDVIAPTPVNVSIAAIPQSSTHGWGNPTRAIRVWTNNFVAQTDGTYKATLTISTNDSPNFNTIATDAADSVVTNMILFVGSNSDNISLDNIKFTK, MGSSHHHHHHSSGLVPRGSHMSISRFGVNTENEDHLAKELEDLNKWGLNIFNVAGYSHNRPLTCIMYAIFQERDLLKTFRISSDTFITYMMTLEDHYHSDVAYHNSLHAADVAQSTHVLLSTPALDAVFTDLEILAAIFAAAIHDVDHPGVSNQFLINTNSELALMYNDESVLENHHLAVGFKLLQEEHCDIFMNLTKKQRQTLRKMVIDMVLATDMSKHMSLLADLKTMVETKKVTSSGVLLLDNYTDRIQVLRNMVHCADLSNPTKSLELYRQWTDRIMEEFFQQGDKERERGMEISPMCDKHTASVEKSQVGFIDYIVHPLWETWADLVQPDAQDILDTLEDNRNWYQSMIPQSPSPPLDEQNRDCQGLMEKFQFELTLDEEDSEGPEKEGEGHS, MKFLNVLIVVEDIEKSKKFYYDVLGLKVICDFGENVVLEGNISLQEKKLWLEFINKSDSEVKFNGNDAELYFEEDNFDTFVERLSTMKDIDYVHLAIEHRWGQRAIRFYDLDGHIIEVGETMSSVCRRFLDSGLSIDEVAKRMDVTVEYIESVLELEHHHHHH, MGSSHHHHHHSSGLVPRGSHMASMYTVGDYLLDRLHELGIEEIFGVPGDYNLQFLDQIISREDMKWIGNANELNASYMADGYARTKKAAAFLTTFGVGELSAINGLAGSYAENLPVVEIVGSPTSKVQNDGKFVHHTLADGDFKHFMKMHEPVTAARTLLTAENATYEIDRVLSQLLKERKPVYINLPVDVAAAKAEKPALSLEKESSTTNTTEQVILSKIEESLKNAQKPVVIAGHEVISFGLEKTVTQFVSETKLPITTLNFGKSAVDESLPSFLGIYNGKLSEISLKNFVESADFILMLGVKLTDSSTGAFTHHLDENKMISLNIDEGIIFNKVVEDFDFRAVVSSLSELKGIEYEGQYIDKQYEEFIPSSAPLSQDRLWQAVESLTQSNETIVAEQGTSFFGASTIFLKSNSRFIGQPLWGSIGYTFPAALGSQIADKESRHLLFIGDGSLQLTVQELGLSIREKLNPICFIINNDGYTVEREIHGPTQSYNDIPMWNYSKLPETFGATEDRVVSKIVRTENEFVSVMKEAQADVNRMYWIELVLEKEDAPKLLKKMGKLFAEQNK

Soluble on expression in E. coli, not soluble:
MDTLKRGKYAKFLHNYLVDNSSQRGYVLNLNAQWGAGKTYFINRWIDSIKDAHPVVYIDAWKQDYSDDPMLTVVSSIIDALEEHLPAGNKKAIALKNKATRFFKAAAPLLMKGLIKKATGMNIDDVEPETEKKEGSDLYNLTGEASAALAKCLIDDHNEKLKTVEHLRSDIKSLIEALDPKKKLKLPAFIFIDELDRCRPSYAVEMLEVIKHFFELENIVFVVATDTEQLQHAVKAVYGEGFDAQTYLGRFFRRRYSLSESSRFEFVKQMVGESYEIKSLEHHHHHH, MGCAEEKKTDVRWATFNIRYDNPQDSLNNWQYRKDRVCQFIKDHELDIVGMQEVLHNQFQDLRAGLPEYDGIGVGRDDGKTAGEYAPLFYRKDKYEVLDSNTFWLAENPDSVGMMGWDAVCVRIATWAKFKDKATGKIFMAVNTHFDHVGEEARRQSALLIIRKIKEIVGERPAVVTGDFNVTDASDAYETITTNEFVMKDAYKTAARVTGVDYTFHDFARIPAEDCEKIDFIFVTPQVLVKSCEIPAEVPEALLSDHNPQLADLELEHHHHHH, MGSDKIHHHHHHMGKSIRKIVNWKQYNQALVNRGSLTFWVDEAAVNTWYCHEHHGGRGRGFSYSDVAIETALMVKGIFNLSLRALEGFLNSLFTLMSVPLKSPDYTSISKRAKTVNIKYRNPSRGPIAHVVVDATGLKVFGEGEWKTRKHGSEKRRTWRKLHLAIDASTHEVVAAEVSLVSVGDNEVLPTLLNPLRRKITQVSADGAYDTKGCYQLLRRKGCKATIPPRSNAGLWEKRHPRNEAVEALKAGQLKHWKIDNGYHQRSLAETAMGRYKQLNSPMLSLRDYNGQVAEALAGVKAMNKVIRLGMPVRQQVA, MGSDKIHHHHHHMAFKQRREYLFLYTVKDANPNGDPLNENHPRYDGDTAQAMASDVRVKRTTRDEWVRSGEIVFVDGEPKSLKTRFEELKKITGKSDAREIMKQCLDVRLFGVTFALGKEAFAWTGPVQFKWGRSLHSASFEFVQGTAAFATERGGADNRQRSFRNEYLVPFALMGVYAIANQYASQYTDAADEDLQRMLDGLWQGTDNLITRSKNEHKSRLLIEITYKEDFNGKIGALDDKVTLLDREGKVMDREKQKALRSLQEVSLDIGALLKSMELKQEQIAGIRVITDGEINIIQEEQLKGISSIEVR, MGSDKIHHHHHHMSLPAQLRVLEVVQSLEKGGRTTRFTDTVAGLRAQKIFTVPLCISKPESWVSIPDLEVLHKTAGINWKLVFQIRKKIIKNNINLIHAHCEFSQLYASIAGVTCGIKTVATFHRSDLSKYQPNMVNKLIKLFASHFVAVSHDRLSLLTNNLKLPLNKCHVVHGGSVIEKKPTVTSINKARADLGIPLDQLMLLSIGHLGEIKGHQDTLVALSKFTKTMPALHLYIAGDGAAQEKQKLTELVNKLQINENVTFLGQINNAFSWLEACDIFIQPSVEEAFGLVFVEAGAKAKPVIATTVGGIKEIIVSKETGLLVLPSSPKAVEHALAILINSPPLRQQYGENGYKRITEHFSLTNMVNKYTDIFNQAVN, MSDGIPFAGEPADSHEAIMRATFRALREYGYAGLSIQRIADEADLSKSTFYHHFDGKEDLLLSFQEFILTEFNRIFQIESTGDPEQDIKTFVSLILDDFPDCVETPTKNAVLGSYVEMRAQAVQNPDFREKFTETDELFARQLVQIIEDGIEQGVFADVDPDTVSRFMITILDGVILQSATRNDNPVAEVRDTIDEYIEETLILNT, MAHHHHHHMCAALSPAHFQLRVKILSEAAKHVPETGFTNAALAASLKSIGVEDITDRTLSQIFNRGFPIALVEHIVKSTNLHVQRELESVFSKDAIIKSIDSNVDAFVQNRLLLPTEKNVVEKAILSKLELLIPLAEHWPSAVALEYLPANLPYTVMNLAEFVDTTVYYMERATTLGELLDPARRILRSKAMASRIRSGEVDSNGASPTSEFLKSFLKGISLSSGPYAGPSALNLGWYCKRAQVAIVYGAVTTSLLGDVSQNAADTRSLTKAAVETVF, MVDTISVLNPIHLDLSVDPQDNVRISARSTTSSSASTSSDSELMSPRAEELLRMQAELRATRTALAEKDKKMTQIQVTVDAEVQELTEKLFQEAYKMVNTAEARREKAGKLLTESRLEVEVLQAEVRALKELISAPGMGQNHFKQTTSPEHKSTLSKLFNGSSSSSKKQKDAANVSDKKKASSLPSTSTYTLTPSEDREQKEANAVEEIDPILFSEFEFWREAGHPTTSHPFIDRVTVEEVEPCMLFENSELSEEIMKAIRENRVQLEPLNELKPSVRICALTNASRFCPYRVRTGDEEQEWHYVSLIARNRVSYSTFLGLGTIDNFN, MNRTIDRSVPKLGVRSTRQRTAVVGVLKDLDYFASAKVIHQELTKRDLKVGLTTVYRTLQSLSEIEAVDVLHMSNGETLYRHCLSDEHHHHLVCTECGRTVEIDGGPVEKWAKEVAQLHGFQVTGHDAEIYGLCESCSAATE, MQLTPLQQAKPEKEEISPYAINNILSSTQSSPDNGNEADDKENSSVRRNTFPASSASTKKPRGTPYDRTNTPMTVVPQMPQFAPDFSNYNLTMNAWSEFFKKDRCMVCGDNSTGYHYGVQSCEGCKGFFRRSVHKNIAYVCTKGENCTFSYENCAANRGVRTRCQACRFAKCLAVGMNRDNVRVNKETDKDVKPSVASPNFEMTSQVKELTAAFVANMPCSTHLTSGTHAIGAIKKFIESVPALSSLLPKDEKALEMSIQKVMSGILAIRAAFTFDPITFYSCENPVNLLRGGIRNTVFNDCEVALLSGIHILQIVNGGVAEIFTSYCQGLRHQLSQTHLQEIGLCDRLLMRLGPYLNQ
